Test results as given in US20030143644A1.

How the values were obtained:
cytoskeleton [1] = test: cell-based or functional assay
cytoskeleton [2] = test: immunoblot densitometry of the pellet after anti-αβTCR plus GAM ligation, thymocytes
cytoskeleton [3] = test: immunoblot densitometry of the detergent insoluble pellet, resting cells
cytoskeleton [4] = test: immunoblot densitometry of the pellet after anti-αβTCR plus GAM ligation, lymph node T cells
cytoskeleton [5] = test: immunoblot densitometry of the detergent insoluble pellet, TCR ligated against non-ligated

TCR-ζ, sequence (P24161 22-164 limits assumed): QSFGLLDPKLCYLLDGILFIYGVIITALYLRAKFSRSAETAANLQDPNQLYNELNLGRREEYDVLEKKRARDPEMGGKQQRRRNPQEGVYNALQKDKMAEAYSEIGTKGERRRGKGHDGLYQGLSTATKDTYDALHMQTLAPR

Row | Substance | IL-2 production (fold less IL-2 than wild-type CD8/ζ) (cytoskeleton [1]) | percent of TCR-ζ in the detergent insoluble pellet (activated thymocytes) (cytoskeleton [2]) [%] | percent of TCR-ζ in the detergent insoluble pellet (resting thymocytes and lymph node T cells) (cytoskeleton [3]) [%] | percent of TCR-ζ in the detergent insoluble pellet (activated lymph node T cells) (cytoskeleton [4]) [%] | fold increase in the pellet against non-ligated samples (lymph node T cells) (cytoskeleton [5]) [fold] | fold increase in the pellet against non-ligated samples (thymocytes) (cytoskeleton [5]) [fold]
1 | CD8/ζY153E (from UniProt P01731 28-217; P24161 52-164) (receptor) | 100 | – | – | – | – | –
2 | CD8/ζD67-126 (from UniProt P01731 28-217; P24161 52-164) (receptor) | 40 | – | – | – | – | –
3 | TCR-ζ (from UniProt P24161 22-164) (receptor) | – | 16 | 7 | 43 | 6 | 2
